Measurements taken from publication PMC9512700, “Observation of conformational changes that underlie the catalytic cycle of Xrn2” (Nature Chemical Biology, 2022).

Experiments:
[1] = target: T1, CtXrn2 (Xrn2 WT, residues 1-875) (Thermochaetoides thermophila, UniProt G0S058, A5F); experiment: 1H-13C HMQC methyl-TROSY NMR; type: binding; details: 313 K; 5 mM MgCl2; 50 uM protein; 500 uM pAp
T1 construct: gene CTHT_0008830; Xrn core, residues 1-875, C-terminal tag LEHHHHHH kept, E. coli BL21(DE3) CodonPlus-RIL, 100 kDa, single chain; Ile-delta1/Met methyl-labelled for NMR
T1 sequence (G0S058 entry or part of it A5F): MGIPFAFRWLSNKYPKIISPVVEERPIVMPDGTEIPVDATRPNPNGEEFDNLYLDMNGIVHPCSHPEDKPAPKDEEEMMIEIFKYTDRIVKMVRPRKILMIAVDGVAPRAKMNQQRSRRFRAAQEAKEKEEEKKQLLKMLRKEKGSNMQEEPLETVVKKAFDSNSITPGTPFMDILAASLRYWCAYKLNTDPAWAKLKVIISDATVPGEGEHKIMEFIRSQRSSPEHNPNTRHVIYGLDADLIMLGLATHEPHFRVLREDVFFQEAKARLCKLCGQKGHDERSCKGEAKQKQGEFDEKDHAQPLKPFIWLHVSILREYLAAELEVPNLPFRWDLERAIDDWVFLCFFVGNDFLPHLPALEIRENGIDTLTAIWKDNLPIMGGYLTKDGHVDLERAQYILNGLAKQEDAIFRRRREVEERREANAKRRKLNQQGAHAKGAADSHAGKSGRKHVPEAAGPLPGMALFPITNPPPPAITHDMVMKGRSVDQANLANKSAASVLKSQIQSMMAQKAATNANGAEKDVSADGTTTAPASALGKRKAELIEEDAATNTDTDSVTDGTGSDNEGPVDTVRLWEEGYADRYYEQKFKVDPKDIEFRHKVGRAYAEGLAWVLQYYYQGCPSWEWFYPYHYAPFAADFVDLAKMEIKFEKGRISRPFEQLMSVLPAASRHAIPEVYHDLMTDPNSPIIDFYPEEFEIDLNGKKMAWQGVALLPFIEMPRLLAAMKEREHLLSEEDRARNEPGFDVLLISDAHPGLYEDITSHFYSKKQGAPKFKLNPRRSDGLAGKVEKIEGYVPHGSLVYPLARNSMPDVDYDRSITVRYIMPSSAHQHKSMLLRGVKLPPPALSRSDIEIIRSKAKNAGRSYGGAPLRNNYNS

[2] = target: T2, CtXrn2 (Xrn2 WT, residues 1-875) (Thermochaetoides thermophila, UniProt G0S058); experiment: 1H-13C HMQC methyl-TROSY NMR chemical shift perturbation; type: binding; details: 313 K; 5 mM MgCl2; 50 uM protein; 500 uM pAp; around active site
T2 construct: gene CTHT_0008830; Xrn core, residues 1-875, C-terminal tag LEHHHHHH kept, E. coli BL21(DE3) CodonPlus-RIL, 100 kDa, single chain; Ile-delta1/Met methyl-labelled for NMR
T2 sequence (G0S058 1-875): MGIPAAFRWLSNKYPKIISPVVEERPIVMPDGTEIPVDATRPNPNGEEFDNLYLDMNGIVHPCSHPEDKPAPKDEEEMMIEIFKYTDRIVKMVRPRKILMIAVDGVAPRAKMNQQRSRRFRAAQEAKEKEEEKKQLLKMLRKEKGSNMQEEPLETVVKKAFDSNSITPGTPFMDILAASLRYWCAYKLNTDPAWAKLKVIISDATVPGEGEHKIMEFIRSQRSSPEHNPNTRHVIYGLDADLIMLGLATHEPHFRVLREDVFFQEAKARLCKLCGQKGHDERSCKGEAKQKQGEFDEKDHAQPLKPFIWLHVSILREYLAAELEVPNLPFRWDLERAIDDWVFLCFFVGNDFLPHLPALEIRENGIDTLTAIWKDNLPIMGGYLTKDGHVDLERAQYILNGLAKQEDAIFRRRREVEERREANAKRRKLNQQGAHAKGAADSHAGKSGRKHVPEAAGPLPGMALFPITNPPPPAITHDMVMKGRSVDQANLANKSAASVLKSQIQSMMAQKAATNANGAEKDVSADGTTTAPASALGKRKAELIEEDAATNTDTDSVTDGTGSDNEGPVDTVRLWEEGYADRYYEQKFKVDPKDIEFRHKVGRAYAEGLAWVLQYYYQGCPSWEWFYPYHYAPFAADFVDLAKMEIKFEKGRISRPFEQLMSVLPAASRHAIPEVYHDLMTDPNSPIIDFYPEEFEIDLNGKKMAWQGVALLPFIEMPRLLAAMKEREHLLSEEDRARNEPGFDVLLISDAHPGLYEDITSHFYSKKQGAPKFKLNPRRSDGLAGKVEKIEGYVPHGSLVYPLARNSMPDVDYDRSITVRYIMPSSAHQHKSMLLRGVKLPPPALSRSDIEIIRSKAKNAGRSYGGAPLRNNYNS

CtXrn2 1-875 (WT) [3] = target: T3, CtXrn2 1-875 (WT) (Chaetomium thermophilum, UniProt G0S058 1-875); experiment: NMR (methyl-TROSY CSP of M704); no Mg2+; active state not formed; Fluorescence anisotropy: 25 mM HEPES pH 7.3, 125 mM NaCl, 0.002% Triton, no Mg2+, with Zn2+, temperature not stated (room temperature used for dG); NMR: 25 mM H; details: protein: recombinant; single strand
T3 sequence: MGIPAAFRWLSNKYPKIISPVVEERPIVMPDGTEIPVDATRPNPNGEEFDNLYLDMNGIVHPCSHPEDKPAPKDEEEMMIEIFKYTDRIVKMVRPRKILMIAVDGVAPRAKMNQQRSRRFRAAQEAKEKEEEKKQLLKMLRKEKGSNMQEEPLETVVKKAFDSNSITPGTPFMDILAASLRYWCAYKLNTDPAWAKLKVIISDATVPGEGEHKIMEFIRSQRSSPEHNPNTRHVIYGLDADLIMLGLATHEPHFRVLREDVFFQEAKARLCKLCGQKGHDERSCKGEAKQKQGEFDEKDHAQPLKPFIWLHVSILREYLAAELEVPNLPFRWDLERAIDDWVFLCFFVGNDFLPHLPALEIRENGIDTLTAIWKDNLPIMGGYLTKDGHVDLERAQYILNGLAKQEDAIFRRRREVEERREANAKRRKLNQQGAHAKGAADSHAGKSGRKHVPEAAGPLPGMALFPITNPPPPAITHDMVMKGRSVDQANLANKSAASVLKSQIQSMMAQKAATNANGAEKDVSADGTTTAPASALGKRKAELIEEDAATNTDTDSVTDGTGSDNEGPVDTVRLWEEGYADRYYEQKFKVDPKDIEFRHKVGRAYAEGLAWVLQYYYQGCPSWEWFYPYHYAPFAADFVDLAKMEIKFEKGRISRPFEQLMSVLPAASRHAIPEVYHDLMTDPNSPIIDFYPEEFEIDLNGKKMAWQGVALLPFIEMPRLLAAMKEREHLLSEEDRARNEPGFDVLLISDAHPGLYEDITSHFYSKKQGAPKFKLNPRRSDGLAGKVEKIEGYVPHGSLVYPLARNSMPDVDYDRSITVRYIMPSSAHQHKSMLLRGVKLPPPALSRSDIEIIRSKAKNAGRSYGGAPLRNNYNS

CtXrn2 deltaZnF = target: T4, CtXrn2 deltaZnF (Chaetomium thermophilum, UniProt G0S058 1-875, del263-300); experiment: fluorescence anisotropy; no Mg2+, with Zn2+; Fluorescence anisotropy: 25 mM HEPES pH 7.3, 125 mM NaCl, 0.002% Triton, no Mg2+, with Zn2+, temperature not stated (room temperature used for dG); NMR: 25 mM H; details: protein: recombinant; label: fluorescein on 3' thiouridine (6-iodoacetamido-fluorescein); single strand
T4 sequence: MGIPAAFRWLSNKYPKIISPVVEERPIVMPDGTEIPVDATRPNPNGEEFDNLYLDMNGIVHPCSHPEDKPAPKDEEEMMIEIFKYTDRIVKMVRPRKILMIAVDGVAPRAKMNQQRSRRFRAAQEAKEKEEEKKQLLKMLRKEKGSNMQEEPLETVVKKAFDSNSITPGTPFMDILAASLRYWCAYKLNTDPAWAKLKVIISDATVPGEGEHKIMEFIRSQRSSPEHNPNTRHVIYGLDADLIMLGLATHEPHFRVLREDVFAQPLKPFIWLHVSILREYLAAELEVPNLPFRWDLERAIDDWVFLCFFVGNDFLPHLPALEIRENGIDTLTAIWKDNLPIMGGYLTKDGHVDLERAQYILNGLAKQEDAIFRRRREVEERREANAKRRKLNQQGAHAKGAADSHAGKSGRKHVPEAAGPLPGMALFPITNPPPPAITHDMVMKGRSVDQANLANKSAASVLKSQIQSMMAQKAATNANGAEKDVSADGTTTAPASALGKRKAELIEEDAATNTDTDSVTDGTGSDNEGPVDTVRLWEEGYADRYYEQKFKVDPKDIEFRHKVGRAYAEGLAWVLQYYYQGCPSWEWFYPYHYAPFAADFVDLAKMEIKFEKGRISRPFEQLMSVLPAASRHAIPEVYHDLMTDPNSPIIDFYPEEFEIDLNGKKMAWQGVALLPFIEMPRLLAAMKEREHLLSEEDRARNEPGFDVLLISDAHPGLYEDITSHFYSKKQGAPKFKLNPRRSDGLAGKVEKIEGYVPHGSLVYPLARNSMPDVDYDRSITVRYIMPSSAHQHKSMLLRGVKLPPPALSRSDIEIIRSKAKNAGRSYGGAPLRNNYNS

CtXrn2 1-875 (WT) [4] = target: T3, CtXrn2 1-875 (WT); experiment: as above; details: protein: recombinant; label: fluorescein on 3' thiouridine (6-iodoacetamido-fluorescein); single strand
CtXrn2 1-875 (WT) [5] = target: T3, CtXrn2 1-875 (WT); experiment: NMR (methyl-TROSY CSP); 5 mM Mg2+; RNA trimmed at 5' end; locked in pre-translocation state; Fluorescence anisotropy: 25 mM HEPES pH 7.3, 125 mM NaCl, 0.002% Triton, no Mg2+, with Zn2+, temperature not stated (room temperature used for dG); NMR: 25 mM H; details: protein: recombinant; pseudoknot with unstructured 5' end

How did the “1H-13C HMQC methyl-TROSY NMR” value [1] turn out when `Nc1ncnc2c1ncn2[C@@H]1O[C@H](COP(=O)(O)O)[C@@H](OP(=O)(O)O)[C@H]1O` [pAp] was run?
Its value is “HMQC spectra of the Xrn2 WT:pAp complex (black) and Xrn2 A5F:pAp complex (orange)”.

And the “1H-13C HMQC methyl-TROSY NMR chemical shift perturbation” value [2]?
Its value is “The binding of pAp to Xrn2 resulted in substantial chemical shift perturbations”.

B1: pdA5 (ssDNA)
DNA: AAAAA
modifications: 5'-phosphate
Does B1 bind (CtXrn2 1-875 (WT) [3])?
Result: binds

B2: 5-mer RNA (ssRNA)
RNA: GGAGU
modifications: 5'-monophosphate; 3'-terminal 4-thiouridine
How did the binding signal (CtXrn2 deltaZnF) turn out when B2 was run?
The binding signal was 1.5 fold Kd increase vs WT.

Does B2 bind (CtXrn2 1-875 (WT) [4])?
Result: binds

B3: ZIKV xrRNA (structured_RNA)
RNA: GGGAGUGUUGUAAGCACCAAUUUUAGUGUUGUCAGGCCGGCGAAAGUCGCCACAGUUUGGGGAAAGCUGUGCAGCCUGUAACCCCCCCACGAAAGUGGG
modifications: 5'-monophosphate
Does B3 bind (CtXrn2 1-875 (WT) [5])?
Result: binds

B4: 10-mer RNA (ssRNA)
RNA: GGAGGAGAGU
modifications: 5'-monophosphate; 3'-terminal 4-thiouridine
What does the source list for B4?
binding signal (CtXrn2 deltaZnF): ~3 fold Kd increase vs WT; binding result (CtXrn2 1-875 (WT) [4]): binds
